We go through one molecule from article PMC13193388, “Dimerization‐dependent NOTCH receptor transactivation unveils a class of highly selective NOTCH signalling inhibitors” (The Febs Journal, 2025).

This assay addresses T1, purified recombinant HIS epitope-tagged NOTCH3 extracellular domain (human, UniProt Q9UM47 40-1643, glycosylated).
T1 construct: NOTCH3, human, complete extracellular domain; written as one chain so that the self-association rows stand for chain with chain; also called N3 ECD; NOTCH3-ECD protein; source: PEC.3.30 (modified Per.E2A) cells, purified from supernatant (HisTrap HP, Superdex 200); not shown: HIS, C-terminal, kept
Briefly: SPR; Biacore T200; NOTCH3-ECD immobilized on NTA Series S chip by nickel-NTA capture-coupling (about 3500 RU); peptides flowed at 30 μL/min; 50 mM HEPES, 150 mM NaCl, 25 °C; steady-state affinity model. Particulars: both partners purified. For orientation: In SPR one partner is held on a chip, and binding of the other changes the refractive index at the surface.

T1 sequence (Q9UM47 40-1643): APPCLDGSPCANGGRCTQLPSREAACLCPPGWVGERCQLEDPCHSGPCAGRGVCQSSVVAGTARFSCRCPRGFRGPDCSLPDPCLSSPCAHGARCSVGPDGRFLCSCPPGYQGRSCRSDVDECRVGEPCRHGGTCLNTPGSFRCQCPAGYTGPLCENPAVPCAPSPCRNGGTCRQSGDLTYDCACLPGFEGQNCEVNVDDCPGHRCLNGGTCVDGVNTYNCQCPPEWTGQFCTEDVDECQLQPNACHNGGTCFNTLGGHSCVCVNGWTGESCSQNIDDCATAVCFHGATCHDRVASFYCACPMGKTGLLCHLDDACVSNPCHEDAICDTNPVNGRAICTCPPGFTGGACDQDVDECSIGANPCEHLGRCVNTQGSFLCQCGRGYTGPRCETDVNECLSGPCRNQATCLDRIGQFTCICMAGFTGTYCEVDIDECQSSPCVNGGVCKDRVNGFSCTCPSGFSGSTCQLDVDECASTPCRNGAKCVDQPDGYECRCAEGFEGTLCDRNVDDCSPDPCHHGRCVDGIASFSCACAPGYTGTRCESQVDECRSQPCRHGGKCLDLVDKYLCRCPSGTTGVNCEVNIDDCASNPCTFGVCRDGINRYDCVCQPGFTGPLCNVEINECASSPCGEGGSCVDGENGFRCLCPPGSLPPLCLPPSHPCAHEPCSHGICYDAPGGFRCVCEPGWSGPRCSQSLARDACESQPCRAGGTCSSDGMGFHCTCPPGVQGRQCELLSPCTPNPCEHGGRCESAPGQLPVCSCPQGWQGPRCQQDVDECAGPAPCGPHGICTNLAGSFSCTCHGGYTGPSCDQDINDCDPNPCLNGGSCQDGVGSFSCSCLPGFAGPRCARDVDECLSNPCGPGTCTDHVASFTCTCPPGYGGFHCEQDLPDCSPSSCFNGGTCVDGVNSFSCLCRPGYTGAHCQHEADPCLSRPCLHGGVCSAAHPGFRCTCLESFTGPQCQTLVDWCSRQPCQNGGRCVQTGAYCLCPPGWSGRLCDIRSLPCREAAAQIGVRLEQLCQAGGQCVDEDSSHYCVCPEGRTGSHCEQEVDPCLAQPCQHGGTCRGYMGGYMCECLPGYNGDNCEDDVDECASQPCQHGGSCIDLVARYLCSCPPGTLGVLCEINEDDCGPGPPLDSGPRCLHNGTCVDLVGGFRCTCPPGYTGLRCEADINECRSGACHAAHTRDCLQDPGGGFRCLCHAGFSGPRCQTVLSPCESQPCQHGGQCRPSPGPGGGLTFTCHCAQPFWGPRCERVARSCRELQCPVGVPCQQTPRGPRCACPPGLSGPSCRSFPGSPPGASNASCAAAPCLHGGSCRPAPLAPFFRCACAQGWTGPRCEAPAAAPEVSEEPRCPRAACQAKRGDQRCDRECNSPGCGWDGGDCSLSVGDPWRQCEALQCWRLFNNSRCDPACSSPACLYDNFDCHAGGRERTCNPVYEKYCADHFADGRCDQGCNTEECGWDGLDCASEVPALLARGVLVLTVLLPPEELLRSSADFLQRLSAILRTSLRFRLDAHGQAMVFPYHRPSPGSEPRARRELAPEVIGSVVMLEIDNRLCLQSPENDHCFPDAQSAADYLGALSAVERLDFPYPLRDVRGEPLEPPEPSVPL

B1: N34 peptide (peptide)
peptide: EKYCADHFADGR
notes: NOTCH3, human, peptide centred on the helix encompassing the core dimerization motif of the NRR; also called N3 peptide
For B1, the binding result is reported as “binds”.
